{
  "source": "patent US20190309078A1",
  "about": "(Hoffmann-La Roche, published 2019)",
  "target": "human CSF-1R fragment D1-D3 (human, UniProt P07333 20-311)",
  "assay": "SPR",
  "protocol": "The binding of […] anti-CSF-1R antibodies to human CSF-1R fragment D1-D3 (SEQ ID NO:13) was measured as described in Example 10 of WO2011/070024.",
  "data": [
    {"binder": "emactuzumab (antibody, V domains shown, also called anti-CSF-1R antibody emactuzumab; <CSF-1R> MAb) VH: QVQLVQSGAEVKKPGASVKVSCKASGYTFTSYDISWVRQAPGQGLEWMGVIWTDGGTNYAQKLQGRVTMTTDTSTSTAYMELRSLRSDDTAVYYCARDQRLYFDVWGQGTTVTVSS VL: DIQMTQSPSSLSASVGDRVTITCRASEDVNTYVSWYQQKPGKAPKLLIYAASNRYTGVPSRFSGSGSGTDFTLTISSLQPEDFATYYCQQSFSYPTFGQGTKLEIK", "values": [
      {"measurement": "binding result", "result": "no binding"}
    ]}
  ]
}
